This passage reports Kd results from publication PMC10707181, “Neuronal Scaffold Protein ARMS Interacts with Synaptotagmin-4 C2AB through the Ankyrin Repeat Domain with an Unexpected Mode” (International Journal of Molecular Sciences, 2023).

Assay [1] concerns the target T1, Syt4 C2AB (residues 151–425) (human, UniProt Q9H2B2-1 151-425).
T1 construct: also called Syt4 CAB; source: E. coli BL21 (DE3), purified (Ni-NTA, size-exclusion chromatography)
T1 sequence (looked up): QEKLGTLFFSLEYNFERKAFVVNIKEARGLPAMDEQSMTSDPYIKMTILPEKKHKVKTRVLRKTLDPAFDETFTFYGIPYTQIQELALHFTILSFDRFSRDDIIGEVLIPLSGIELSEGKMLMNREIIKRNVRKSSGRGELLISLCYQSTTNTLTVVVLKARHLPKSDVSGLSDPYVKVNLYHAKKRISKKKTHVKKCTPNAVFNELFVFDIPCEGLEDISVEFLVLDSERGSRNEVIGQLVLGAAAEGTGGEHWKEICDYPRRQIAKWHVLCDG
Description: ITC; ARMS proteins (200 μM) in the syringe, Syt4 proteins (20 μM) in the cell; 25 °C; 50 mM Tris, 100 mM NaCl, 1 mM EDTA, 1 mM DTT, pH 7.8; one-site binding model. The settings on record: both partners purified. On the technique in general: In ITC the heat of successive injections is recorded.

The target of assay [2] is T2, Syt4 132-425 R283A (Homo sapiens).
T2 chain: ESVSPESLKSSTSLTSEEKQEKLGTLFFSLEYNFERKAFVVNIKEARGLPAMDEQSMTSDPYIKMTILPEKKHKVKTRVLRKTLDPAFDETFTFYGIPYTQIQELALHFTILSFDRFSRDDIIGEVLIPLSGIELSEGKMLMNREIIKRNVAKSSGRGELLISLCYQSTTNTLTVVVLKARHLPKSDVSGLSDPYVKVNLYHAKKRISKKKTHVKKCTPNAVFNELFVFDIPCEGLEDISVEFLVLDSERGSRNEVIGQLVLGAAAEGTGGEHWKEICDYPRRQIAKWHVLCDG
In words: ITC.

In assay [3] the target is T3, Syt4 132–425 K284A (human, UniProt Q9H2B2-1 132-425, K284A).
T3 sequence: T2 chain with A152R, K153A
Description: ITC.

In assay [4] the target is T4, Syt4 132-425 K279A,R280A,R283A (Homo sapiens).
T4 chain: T2 chain with K148A, R149A
In words: ITC.

The target of assay [5] is T5, Syt4 132-425 K279A,R280A (Homo sapiens).
T5 chain: T2 chain with K148A, R149A, A152R
Description: ITC.

Assay [6] addresses T6, Syt4 132–425 (human, UniProt Q9H2B2-1 132-425).
T6 chain: T2 chain with A152R
In words: ITC.

In assay [7] the target is T7, Syt4 132-425 R283A,K284A (Homo sapiens).
T7 chain: T2 chain with K153A
Description: ITC.

Assay [8] deals with T8, Syt4 132-425 R288A (Homo sapiens).
T8 chain: T2 chain with A152R, R157A
In words: ITC.

The target in assay [9] is T9, Syt4 132–425 Q186A (human, UniProt Q9H2B2-1 132-425, Q186A).
T9 sequence: T2 chain with Q55A, A152R
Description: ITC.

Assay [10] has as its target T10, full length of the cytoplasmic region of Syt4 (CD, residues 41–425) (human, UniProt Q9H2B2-1 41-425).
T10 construct: also called Synaptotagmin-4 CD; source: E. coli BL21 (DE3), purified (Ni-NTA, size-exclusion chromatography)
T10 sequence (looked up): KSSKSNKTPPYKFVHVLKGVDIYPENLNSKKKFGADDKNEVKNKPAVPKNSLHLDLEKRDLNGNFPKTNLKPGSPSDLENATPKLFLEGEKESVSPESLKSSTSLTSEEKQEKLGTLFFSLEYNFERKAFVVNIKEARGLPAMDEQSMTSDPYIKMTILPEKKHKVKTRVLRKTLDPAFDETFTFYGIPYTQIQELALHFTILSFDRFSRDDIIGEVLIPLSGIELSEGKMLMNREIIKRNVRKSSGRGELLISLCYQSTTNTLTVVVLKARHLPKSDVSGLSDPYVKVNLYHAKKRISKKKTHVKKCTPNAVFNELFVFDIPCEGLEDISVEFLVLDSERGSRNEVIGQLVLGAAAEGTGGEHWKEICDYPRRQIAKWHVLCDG
Description: ITC; ARMS proteins (200 μM) in the syringe, Syt4 proteins (20 μM) in the cell; 25 °C; 50 mM Tris, 100 mM NaCl, 1 mM EDTA, 1 mM DTT, pH 7.8; one-site binding model. The conditions noted are these: both partners purified.

Positions count from the first letter of the chain named.

B1: ARMS R1-8 (residues 1–270) (domain or fragment, rat, UniProt Q9EQG6 1-270, looked up)
chain: MSVLISQSVINYVEEENIPALKALLEKCKDVDERNECGQTPLMLAAEQGNVEIVKELLKNGANCNLEDLDNWTALISASKEGHIHIVEELLKSGASLEHRDMGGWTALMWACYKGRTDVVELLLSHGANPSVTGLYSVYPIIWAAGRGHADIVHLLLQNGAKVNCSDKYGTTPLVWAARKGHLECVKHLLAMGADVDQEGANSMTALIVAVKGGYTQSVKEILKRNPNVNLTDKDGNTALMIASKEGHIEIVQDLLDAGTYVNIPDRSGD
notes: ARMS (Kidins220), rat, UniProt Q9EQG6, residues 1-270: ankyrin repeats 1-8; also called ARMS ankyrin repeats 1–8; source: E. coli BL21 (DE3), purified (Ni-NTA, size-exclusion chromatography)
Regarding B1, in assay [1], the Kd is approximately 11 µM.

B2: ARMS ankyrin repeats 1–11 (R1-11, residues 1–365) (domain or fragment, rat, UniProt Q9EQG6 1-365, looked up)
chain: MSVLISQSVINYVEEENIPALKALLEKCKDVDERNECGQTPLMLAAEQGNVEIVKELLKNGANCNLEDLDNWTALISASKEGHIHIVEELLKSGASLEHRDMGGWTALMWACYKGRTDVVELLLSHGANPSVTGLYSVYPIIWAAGRGHADIVHLLLQNGAKVNCSDKYGTTPLVWAARKGHLECVKHLLAMGADVDQEGANSMTALIVAVKGGYTQSVKEILKRNPNVNLTDKDGNTALMIASKEGHIEIVQDLLDAGTYVNIPDRSGDTVLIGAVRGGHVEIVRALLQKYADIDIRGQDNKTALYWAVEKGNATMVRDILQCNPDTEICTKDGETPLIKATKMRNIEVVELLLDKGAKVSAVD
notes: ARMS (Kidins220), rat, UniProt Q9EQG6, residues 1-365: ankyrin repeats 1-11; also called ARMS R1-11; ARMS R1-11 WT; source: E. coli BL21 (DE3), purified (Ni-NTA, size-exclusion chromatography)
As for B2, the Kd was 4 µM in [2]; 3 µM in assay [3]; 19 µM in assay [4]; 9 µM in assay [5]; 12 µM in assay [6]; 4 µM in assay [7]. The Kd in [8] was 10 µM; in [9], 3 µM; in assay [10] it was approximately 11 µM.

What is called Kd is the concentration at which binding is half-saturated.
